The values below come from patent publication US20160097044A1, “Antimicrobial Enzyme Fusions Reduce Resistance and Kill Intracellular Staphylococcus aureus” (The United States of America, as Represented by the …, priority 2014, published 2016).

One experiment relates to S. chromogenes MP02. Put plainly: Minimum Inhibitory Concentration (MIC) assay. The class given is cell-based, Staphylococcus chromogenes. Particulars: Mastitis isolate S. chromogenes MP02.
The test system of a further experiment is S. epidermidis MP04. Put plainly: Minimum Inhibitory Concentration (MIC) assay. Format: cell-based, Staphylococcus epidermidis. Particulars: Mastitis isolate S. epidermidis MP04.
The test system of the next experiment is S. simulans MP03. The experiment is described as follows: Minimum Inhibitory Concentration (MIC) assay. Format: cell-based, Staphylococcus simulans. Particulars: Mastitis isolate S. simulans MP03.
A further experiment concerns S. aureus strain Newman. The experiment is described as follows: Resistance development, plate lysis repeated exposure method. The class given is cell-based. Particulars: not shown. The procedure:
For the plate lysis assays, purified enzymes were serially diluted in saline lysis buffer (SLB; 150 mM NaCl 10 mM Tris buffer, pH 7.5) with 15% glycerol, to yield concentrations of 100, 10, 1, and 0.1 pmoles/10 μl. S. aureus Newman was cultivated in tryptic soy broth (TSB) to an OD600 nm=0.4-0.6. The bacterial cells were harvested and diluted to yield a suspension with an OD600 nm of 0.1. Tryptic soy agar (TSA) plates were flooded with 3 ml of the bacterial cell suspension. Excess culture was removed, and the plates were air dried at room temperature for ˜30 min in a laminar flow hood. 10 μl of each peptidoglycan hydrolase dilution was then spotted onto the air-dried lawn, allowed to air dry, and the culture plates incubated overnight at 37° C. The following day, plates were evaluated visually and photographed.
In the Plate lysis method, bacterial cells were scraped from a sub-lethal (not fully cleared) spot from a plate lysis assay (described above), and these ‘exposed’ cells were used to inoculate 5 ml of TSB and grown for 4-6 hours to generate a new culture and lawn for subsequent exposure. Bacteria were passaged in this assay for up to 10 consecutive days, at which time the S. aureus were tested in MIC assays. Plate lysis repeated exposure experiments were performed in duplicate.

The subject of another experiment is S. aureus strain ALR. The experiment is described as follows: Rat nasal colonization model. Particulars: for reduction of nasal bacterial load (in words): equimolar concentrations, intranasally twice a day on days 5, 6, 7. The class given is in vivo, Wistar rats. From the text:
FIGS. 1a-1c depict peptidoglycan hydrolase construct schematics, resistance development and effectiveness in eradicating S. aureus carriage in a rat colonization model. FIG. 1a is a schematic of the peptidoglycan hydrolase constructs. Domains: CHAP endopeptidase (CHAP, red box); N-acetylmuramoyl-L-alanine amidase (AMID, green box); M23 endopeptidase (PEP, blue oval); CBDs (LysK SH3b, gold diamond; lysostaphin SH3b, gold diamond with dot); protein transduction domain (PTD, blue circle); hexahistidine purification tag (His6). Domains are not to scale. Specific peptidoglycan cut sites are illustrated in FIG. 3a. FIG. 1b depicts in vitro antimicrobial resistance development. Engineered triple fusions K-L and L-K suppress antimicrobial resistance development compared to LysK (K), lysostaphin (L), or a combination of equimolar concentrations of both (L+K). Changes in Minimum Inhibitory Concentrations (MIC) are depicted as a fold-change at the tenth round of sublethal exposure compared to the first exposure, with the average fold-change of 4 replicates in red. Error bars=SEM. First exposure MICs: Lysostaphin, 0.77 μg/ml (27 nM); LysK, 47 μg/ml (840 nM); Lysostaphin and LysK (L+K) in combination 0.2 μg/ml (7 nM and 3 nM, respectively); triple fusion K-L, 7 μg/ml (97 nM); triple fusion L-K, 7.8 μg/ml (107 nM). FIG. 1c depicts reduction in colonization in a rat nasal carriage model. Rats were inoculated with S. aureus strain ALR on Day 1. After 5 days, the rats were treated twice daily for 3 days with 20 μl of a 10 mg/ml solution of each enzyme. The rat noses were excised on day 10, homogenized, and quantitative cultures were performed. Each point represents the CFU recovered from an individual rat. Bars indicate the median CFU/nose recovered from treated rats. […] Data were compiled from five independent experiments. Lyso=commercially purchased lysostaphin (AMBI, Tarrytown, N.Y.). Statistical comparisons were made with the Mann-Whitney test. SEQ ID NOs of depicted peptidoglycan hydrolase constructs: Lysostaphin (SEQ ID NO:1); Lysostaphin-PTD1-4, 6-12 (SEQ ID NOs:9, 11, 13, 15, 17, 19, 21, 23, 25, 27, 29, respectively); LysK (SEQ ID NO:3); LysK-PTD1-11 (SEQ ID NOs: 31, 33, 35, 37, 39, 41, 43, 45, 47, 49, 51, respectively); LysK-Lysostaphin Fusion K-L (SEQ ID NO:5); K-L-PTD1-4, 6-11 (SEQ ID NOs:53, 55, 57, 59, 61, 63, 65, 67, 69, 71, respectively); Lysostaphin-LysK Fusion L-K (SEQ ID NO:7).
Reduction in nasal colonization was observed when rats were challenged on day 0 with 10^7 CFU S. aureus strain ALR and then treated twice per day on days 5, 6, and 7 with 10 μl of 2% mupirocin calcium ointment (Bactroban Nasal) or petrolatum/softisan placebo. Noses from rats were homogenized and cultured quantitatively on day 10. Each point represents the CFU recovered from an individual rat, and the data were compiled from two independent experiments. Data were analyzed by the Mann-Whitney test, and horizontal lines represent median values. Mupirocin reduced colonization ˜98% compared to the placebo control.
The rat nasal colonization model is an adaptation of the mouse nasal colonization model that we described previously (Schaffer et al. 2006. Infect. Immun. 74:2145-2153). All animal experiments were conducted in accordance with a protocol approved by the appropriate Institutional Animal Care and Use Committees. Wistar rats (5 to 6 wks of age) were obtained from Charles River Laboratories (Wilmington, Mass.) and given food and water ad libitum. The animals were housed two per cage in a modified barrier facility under viral antibody-free conditions. The rats were given drinking water containing streptomycin sulfate (0.5 g/liter; Sigma) 1 day prior to bacterial inoculation and for the course of the experiment. The drinking water and cages were changed three times per week. […]

In the case of “K-L: both LysK lytic domains fused to the N-terminus of lysostaphin; SEQ ID NO:5, protein SEQ ID NO:6”, the “Minimum Inhibitory Conc. (median μg/ml)” value in the experiment with S. chromogenes MP02, in the experiment with S. epidermidis MP04 and in the experiment with S. simulans MP03 was 3.5 µg/mL each time. Also, in the experiment on S. aureus strain Newman, the “increased resistance during 10 rounds of sub-lethal exposure in plate lysis assays” value (from here on “increased resistance during 10 rounds”) is “no detectable increase in resistance”. Further, the “reduction of nasal bacterial load (in words)” value in the experiment with S. aureus strain ALR is “unable to significantly reduce the bacterial load”.

“L: 247 amino acid mature (secreted) lysostaphin, staphylolytic bacteriocin, C-terminal His6 tag; SEQ ID NO:1 [reference compound]”: the entries for the “Minimum Inhibitory Conc. (median μg/ml)” value in the experiment on S. chromogenes MP02, in the experiment on S. epidermidis MP04 and in the experiment with S. simulans MP03 were 0.58 µg/mL, 6.2 µg/mL and 1.5 µg/mL, respectively. Besides, the “increased resistance during 10 rounds” value in the experiment with S. aureus strain Newman was determined as 8 fold.

B1: K: 495 amino-acid staphylococcal phage K endolysin LysK, C-terminal His6 tag; SEQ ID NO:3 (protein)
chain: MAKTQAEINKRLDAYAKGTVDSPYRVKKATSYDPSFGVMEAGAIDADGYYHAQCQDLITDYVLWLTDNKVRTWGNAKDQIKQSYGTGFKIHENKPSTVPKKGWIAVFTSGSYEQWGHIGIVYDGGNTSTFTILEQNWNGYANKKPTKRVDNYYGLTHFIEIPVKAGTTVKKETAKKSASKTPAPKKKATLKVSKNHINYTMDKRGKKPEGMVIHNDAGRSSGQQYENSLANAGYARYANGIAHYYGSEGYVWEAIDAKNQIAWHTGDGTGANSGNFRFAGIEVCQSMSASDAQFLKNEQAVFQFTAEKFKEWGLTPNRKTVRLHMEFVPTACPHRSMVLHTGFNPVTQGRPSQAIMNKLKDYFIKQIKNYMDKGTSSSTVVKDGKTSSASTPATRPVTGSWKKNQYGTWYKPENATFVNGNQPIVTRIGSPFLNAPVGGNLPAGATIVYDEVCIQAGHIWIGYNAYNGNRVYCPVRTCQGVPPNQIPGVAWGVFKLEHHHHHH
modifications: C-terminal His6 tag; Phage K
Regarding B1, the “Minimum Inhibitory Conc. (median μg/ml)” value in the experiment with S. chromogenes MP02 came to 16 µg/mL; in the experiment with S. epidermidis MP04 it was 8.4 µg/mL; in the experiment on S. simulans MP03, 20 µg/mL. The “increased resistance during 10 rounds” value with S. aureus strain Newman was 2 fold. Further, the “reduction of nasal bacterial load (in words)” value with S. aureus strain ALR is “unable to significantly reduce the bacterial load”.

B2: L-K: LysK lytic domains inserted between lysostaphin's M23 endopeptidase domain and SH3b cell wall binding domain; SEQ ID NO:7, protein SEQ ID NO:8 (protein)
chain: MAATHEHSAQWLNNYKKGYGYGPYPLGINGGMHYGVDFFMNIGTPVKAISSGKIVEAGWSNYGGGNQIGLIENDGVHRQWYMHLSKYNVKVGDYVKAGQIIGWSGSTGYSTAPHLHFQRMVNSFSNSTAQDPMPFLKSAGYGKAGGTVTPTPNTGLDAKTQAEINKRLDAYAKGTVDSPYRVKKATSYDPSFGVMEAGAIDADGYYHAQCQDLITDYVLWLTDNKVRTWGNAKDQIKQSYGTGFKIHENKPSTVPKKGWIAVFTSGSYEQWGHIGIVYDGGNTSTFTILEQNWNGYANKKPTKRVDNYYGLTHFIEIPVKAGTTVKKETAKKSASKTPAPKKKATLKVSKNHINYTMDKRGKKPEGMVIHNDAGRSSGQQYENSLANAGYARYANGIAHYYGSEGYVWEAIDAKNQIAWHTGDGTGANSGNFRFAGIEVCQSMSASDAQFLKNEQAVFQFTAEKFKEWGLTPNRKTVRLHMEFVPTACPHRSMVLHTGFNPVTQGRPSQAIMNKLKDYFIKQIKNYMDKGTSSSTVVKDGKTSSASLDTVTPTPNTGWKTNKYGTLYKSESASFTPNTDIITRTTGPFRSMPQSGVLKAGQTIHYDEVMKQDGHVWVGYTGNSGQRIYLPVRTWNKSTNTLGVLWGTIKLEHHHHHH
modifications: Staphylococcus simulans & Phage K
For the molecule B2, the “Minimum Inhibitory Conc. (median μg/ml)” value in the experiment with S. chromogenes MP02 was determined as 0.37 µg/mL; in the experiment with S. epidermidis MP04 it was 4.2 µg/mL; in the experiment with S. simulans MP03, 5.9 µg/mL. In addition, in the experiment on S. aureus strain Newman, the “increased resistance during 10 rounds” value is “no detectable increase in resistance”. Besides, the “decrease in CFU/nose (nasal colonization) compared to rats treated with buffer” value in the experiment with S. aureus strain ALR (200 μg intranasally twice a day on days 5, 6, 7, noses cultured day 10) was found to be 98%. Moreover, the “bacterial load reduction relative to either parental enzyme” value in the experiment with S. aureus strain ALR (rat nasal decolonization model) was 5-10 fold.
